Values quoted from earlier work in article PMC8065807.
pKd: −log10 of the molar value.

Biological target: EGFR (Homo sapiens) (UniProt P00533)

Substance: GE11
- pKd: 7.66
